Results: article PMC9482650, “Quantitative fragmentomics allow affinity mapping of interactomes” (Nature Communications, 2022)

Key:
Test in all cases: holdup assay
Parameters in all cases: key: below the threshold = too weak to quantify, mostly under pKd 3.1 to 4
GRIP1_4, Q9Y3R0 = target: T1, GRIP1_4, Q9Y3R0
T1 sequence (Q9Y3R0 467-571, limits assumed, looked up): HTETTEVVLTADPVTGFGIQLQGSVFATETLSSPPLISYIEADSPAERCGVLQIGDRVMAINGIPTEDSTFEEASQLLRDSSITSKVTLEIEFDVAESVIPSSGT

SIPA1L2, Q9P2F8 = target: T2, SIPA1L2, Q9P2F8
T2 sequence (Q9P2F8 945-1036, limits assumed, looked up): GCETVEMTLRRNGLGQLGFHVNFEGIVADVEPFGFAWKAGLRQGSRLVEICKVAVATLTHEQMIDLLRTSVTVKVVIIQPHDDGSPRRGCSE

Inadl_5, Q8NI35 = target: Inadl_5, Q8NI35
Inadl_5, Q8NI35, sequence (Q8NI35 673-780): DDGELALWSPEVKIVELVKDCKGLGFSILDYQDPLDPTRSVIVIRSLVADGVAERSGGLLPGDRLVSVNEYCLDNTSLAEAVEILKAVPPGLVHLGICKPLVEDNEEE

TJP3_3, O95049 = target: T3, TJP3_3, O95049
T3 sequence (O95049 375-456, limits assumed, looked up): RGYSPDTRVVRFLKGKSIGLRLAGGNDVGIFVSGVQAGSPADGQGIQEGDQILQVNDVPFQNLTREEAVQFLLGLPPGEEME

FRMPD4, Q14CM0 = target: FRMPD4, Q14CM0
FRMPD4, Q14CM0, sequence (Q14CM0 67-160): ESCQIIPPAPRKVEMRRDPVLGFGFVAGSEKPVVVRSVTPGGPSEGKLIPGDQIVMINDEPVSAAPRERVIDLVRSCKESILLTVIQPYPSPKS

FRMPD2_3, Q68DX3 = target: FRMPD2_3, Q68DX3
FRMPD2_3, Q68DX3, sequence (Q68DX3 1073-1166): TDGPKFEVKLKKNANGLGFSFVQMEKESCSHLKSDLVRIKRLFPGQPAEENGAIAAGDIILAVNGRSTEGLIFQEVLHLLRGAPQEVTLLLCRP

HTRA3, P83110 = target: T4, HTRA3, P83110
T4 sequence (P83110 354-453, limits assumed, looked up): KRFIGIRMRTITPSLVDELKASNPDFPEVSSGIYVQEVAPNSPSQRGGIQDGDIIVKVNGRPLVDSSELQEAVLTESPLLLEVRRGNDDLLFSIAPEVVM

TJP1_3, Q07157 = target: TJP1_3, Q07157
TJP1_3, Q07157, sequence (Q07157 416-512): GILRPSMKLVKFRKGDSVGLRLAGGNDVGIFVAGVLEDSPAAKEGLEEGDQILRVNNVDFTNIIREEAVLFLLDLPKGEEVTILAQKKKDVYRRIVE

DLG3_2, Q92796 = target: T5, DLG3_2, Q92796
T5 sequence (Q92796 221-321, limits assumed, looked up): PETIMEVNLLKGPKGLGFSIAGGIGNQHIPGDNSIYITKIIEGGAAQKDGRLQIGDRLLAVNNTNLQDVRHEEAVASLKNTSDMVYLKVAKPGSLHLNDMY

FRMPD1, Q5SYB0 = target: T6, FRMPD1, Q5SYB0
T6 sequence (Q5SYB0 52-145, limits assumed, looked up): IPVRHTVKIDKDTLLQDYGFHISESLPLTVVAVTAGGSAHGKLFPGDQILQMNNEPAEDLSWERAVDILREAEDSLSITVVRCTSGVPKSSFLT

NHERF4_4, Q86UT5 = target: NHERF4_4, Q86UT5
NHERF4_4, Q86UT5, sequence (Q86UT5 464-550): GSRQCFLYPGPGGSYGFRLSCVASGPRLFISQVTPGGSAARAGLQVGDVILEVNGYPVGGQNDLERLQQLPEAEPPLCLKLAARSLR

MAGI2_6, Q86UL8 = target: MAGI2_6, Q86UL8
MAGI2_6, Q86UL8, sequence (Q86UL8 1141-1229): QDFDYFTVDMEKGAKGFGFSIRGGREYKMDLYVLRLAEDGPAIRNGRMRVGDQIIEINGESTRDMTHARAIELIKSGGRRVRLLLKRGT

LIMK2, P53671 = target: LIMK2, P53671
LIMK2, P53671, sequence (P53671 143-248): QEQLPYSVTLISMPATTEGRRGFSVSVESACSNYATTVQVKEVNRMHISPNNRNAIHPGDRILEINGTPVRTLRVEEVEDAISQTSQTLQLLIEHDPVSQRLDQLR

LNX1_2, Q8TBB1 = target: LNX1_2, Q8TBB1
LNX1_2, Q8TBB1, sequence (Q8TBB1 371-470): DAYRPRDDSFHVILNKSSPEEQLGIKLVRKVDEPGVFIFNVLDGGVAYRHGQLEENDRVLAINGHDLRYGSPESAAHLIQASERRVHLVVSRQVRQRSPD

Inadl_3, Q8NI35 = target: Inadl_3, Q8NI35
Inadl_3, Q8NI35, sequence (Q8NI35 359-469): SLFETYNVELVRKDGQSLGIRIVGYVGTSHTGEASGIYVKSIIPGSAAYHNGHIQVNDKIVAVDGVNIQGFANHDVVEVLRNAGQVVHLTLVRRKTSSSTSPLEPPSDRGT

HTRA2, O43464 = target: HTRA2, O43464
HTRA2, O43464, sequence (O43464 355-458): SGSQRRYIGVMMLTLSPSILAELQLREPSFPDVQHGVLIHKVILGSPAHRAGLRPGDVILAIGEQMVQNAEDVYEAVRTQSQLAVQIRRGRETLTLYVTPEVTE

PDZD2_2, O15018 = target: T7, PDZD2_2, O15018
T7 sequence (O15018 329-429, limits assumed, looked up): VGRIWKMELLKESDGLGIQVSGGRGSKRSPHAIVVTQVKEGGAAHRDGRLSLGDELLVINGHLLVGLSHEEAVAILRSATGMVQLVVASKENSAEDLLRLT

SNTG2, Q9NY99 = target: T8, SNTG2, Q9NY99
T8 sequence (Q9NY99 68-166, limits assumed, looked up): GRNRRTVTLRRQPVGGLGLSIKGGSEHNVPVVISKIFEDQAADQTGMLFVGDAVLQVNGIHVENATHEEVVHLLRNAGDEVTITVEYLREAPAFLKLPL

GRIP1_5, Q9Y3R0 = target: T9, GRIP1_5, Q9Y3R0
T9 sequence (Q9Y3R0 568-668, limits assumed, looked up): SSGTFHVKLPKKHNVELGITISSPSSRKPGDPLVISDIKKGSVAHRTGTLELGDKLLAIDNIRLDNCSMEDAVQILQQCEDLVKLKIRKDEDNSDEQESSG

HTRA1, Q92743 = target: HTRA1, Q92743
HTRA1, Q92743, sequence (Q92743 360-477): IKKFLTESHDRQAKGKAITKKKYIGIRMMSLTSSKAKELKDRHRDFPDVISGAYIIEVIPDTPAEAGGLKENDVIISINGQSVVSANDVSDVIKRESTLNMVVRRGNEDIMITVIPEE

IL16_3, Q14005 = target: IL16_3, Q14005
IL16_3, Q14005, sequence (Q14005 1107-1207): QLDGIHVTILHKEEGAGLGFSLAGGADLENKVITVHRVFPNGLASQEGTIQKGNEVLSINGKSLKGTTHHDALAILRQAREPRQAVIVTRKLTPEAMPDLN

APBA3_1, O96018 = target: T10, APBA3_1, O96018
T10 sequence (O96018 389-490, limits assumed, looked up): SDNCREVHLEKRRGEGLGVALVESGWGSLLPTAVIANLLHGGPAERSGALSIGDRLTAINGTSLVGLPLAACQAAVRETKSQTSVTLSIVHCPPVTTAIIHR

GRIP2_7, Q9C0E4 = target: GRIP2_7, Q9C0E4
GRIP2_7, Q9C0E4, sequence (Q9C0E4 934-1023): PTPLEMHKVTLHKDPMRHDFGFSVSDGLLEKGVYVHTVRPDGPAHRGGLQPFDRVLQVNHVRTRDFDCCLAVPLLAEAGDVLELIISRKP

PDZD7_3, Q9H5P4 = target: T11, PDZD7_3, Q9H5P4
T11 sequence (Q9H5P4 857-944, limits assumed, looked up): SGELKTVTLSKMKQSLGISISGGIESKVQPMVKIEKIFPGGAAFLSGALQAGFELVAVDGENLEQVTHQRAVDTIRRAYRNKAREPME

MAGI2_2, Q86UL8 = target: MAGI2_2, Q86UL8
MAGI2_2, Q86UL8, sequence (Q86UL8 410-522): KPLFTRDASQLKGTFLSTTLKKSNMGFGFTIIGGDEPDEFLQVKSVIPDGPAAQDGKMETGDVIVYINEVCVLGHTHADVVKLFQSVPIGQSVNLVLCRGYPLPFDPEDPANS

GORASP1, Q9BQQ3 = target: GORASP1, Q9BQQ3
GORASP1, Q9BQQ3, sequence (Q9BQQ3 1-208): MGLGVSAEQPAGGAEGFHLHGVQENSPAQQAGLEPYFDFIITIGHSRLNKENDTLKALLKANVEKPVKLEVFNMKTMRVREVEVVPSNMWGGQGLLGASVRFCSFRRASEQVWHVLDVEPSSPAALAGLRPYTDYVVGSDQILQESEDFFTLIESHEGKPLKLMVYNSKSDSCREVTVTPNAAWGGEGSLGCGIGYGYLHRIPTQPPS

[1] = plain residues with an end cap or a label only (N-terminal biotin on a linker: none)
[2] = plain residues with an end cap or a label only (N-terminal biotin on a linker: ttds)
[3] = plain residues with an end cap or a label only (N-terminal biotin on a linker: ahx)

DSKPPLPPDEWV [MERS-E, K9N5R3]
pKd (GRIP1_4, Q9Y3R0; [1]): below the threshold | pKd (SIPA1L2, Q9P2F8; [1]): below the threshold | pKd (Inadl_5, Q8NI35; [1]): 3.74 | pKd (TJP3_3, O95049; [1]): 4.83 | pKd (FRMPD4, Q14CM0; [1]): 4.07 | pKd (FRMPD2_3, Q68DX3; [1]): 3.53 | pKd (HTRA3, P83110; [1]): 5.66 | pKd (TJP1_3, Q07157; [1]): 3.56 | pKd (DLG3_2, Q92796; [1]): 3.96 | pKd (FRMPD1, Q5SYB0; [1]): below the threshold | pKd (NHERF4_4, Q86UT5; [1]): below the threshold | pKd (MAGI2_6, Q86UL8; [1]): 4.75 | pKd (LIMK2, P53671; [1]): below the threshold | pKd (LNX1_2, Q8TBB1; [1]): below the threshold | pKd (Inadl_3, Q8NI35; [1]): 3.55 | pKd (HTRA2, O43464; [1]): 4.2 | pKd (PDZD2_2, O15018; [1]): 5.11 | pKd (SNTG2, Q9NY99; [1]): 3.59 | pKd (GRIP1_5, Q9Y3R0; [1]): 3.68 | pKd (HTRA1, Q92743; [1]): 4.34 | pKd (IL16_3, Q14005; [1]): below the threshold | pKd (APBA3_1, O96018; [1]): 3.65 | pKd (GRIP2_7, Q9C0E4; [1]): 3.86 | pKd (PDZD7_3, Q9H5P4; [1]): below the threshold | pKd (MAGI2_2, Q86UL8; [1]): below the threshold | pKd (GORASP1, Q9BQQ3; [1]): 4.29

HRTCYLVTQL [ASIC3, Q9UHC3]
pKd (GRIP1_4, Q9Y3R0; [2]): below the threshold | pKd (SIPA1L2, Q9P2F8; [2]): below the threshold | pKd (Inadl_5, Q8NI35; [2]): below the threshold | pKd (TJP3_3, O95049; [2]): 3.43 | pKd (FRMPD4, Q14CM0; [2]): 3.77 | pKd (FRMPD2_3, Q68DX3; [2]): below the threshold | pKd (HTRA3, P83110; [2]): 3.43 | pKd (TJP1_3, Q07157; [2]): below the threshold | pKd (DLG3_2, Q92796; [2]): 3.97 | pKd (FRMPD1, Q5SYB0; [2]): below the threshold | pKd (NHERF4_4, Q86UT5; [2]): 3.45 | pKd (MAGI2_6, Q86UL8; [2]): 4.11 | pKd (LIMK2, P53671; [2]): below the threshold | pKd (LNX1_2, Q8TBB1; [2]): 3.46 | pKd (Inadl_3, Q8NI35; [2]): 3.33 | pKd (HTRA2, O43464; [2]): 3.91 | pKd (PDZD2_2, O15018; [2]): 3.37 | pKd (SNTG2, Q9NY99; [2]): 3.75 | pKd (GRIP1_5, Q9Y3R0; [2]): below the threshold | pKd (HTRA1, Q92743; [2]): 4.39 | pKd (IL16_3, Q14005; [2]): below the threshold | pKd (APBA3_1, O96018; [2]): below the threshold | pKd (GRIP2_7, Q9C0E4; [2]): 3.48 | pKd (PDZD7_3, Q9H5P4; [2]): 5.47 | pKd (MAGI2_2, Q86UL8; [2]): 4.14 | pKd (GORASP1, Q9BQQ3; [2]): 3.93

HSGSYLVTSV [APC, P25054]
pKd (GRIP1_4, Q9Y3R0; [3]): below the threshold | pKd (SIPA1L2, Q9P2F8; [3]): below the threshold | pKd (Inadl_5, Q8NI35; [3]): below the threshold | pKd (TJP3_3, O95049; [3]): below the threshold | pKd (FRMPD4, Q14CM0; [3]): below the threshold | pKd (FRMPD2_3, Q68DX3; [3]): below the threshold | pKd (HTRA3, P83110; [3]): below the threshold | pKd (TJP1_3, Q07157; [3]): below the threshold | pKd (DLG3_2, Q92796; [3]): 5.07 | pKd (FRMPD1, Q5SYB0; [3]): below the threshold | pKd (NHERF4_4, Q86UT5; [3]): below the threshold | pKd (MAGI2_6, Q86UL8; [3]): 4.85 | pKd (LIMK2, P53671; [3]): below the threshold | pKd (LNX1_2, Q8TBB1; [3]): 3.79 | pKd (Inadl_3, Q8NI35; [3]): below the threshold | pKd (HTRA2, O43464; [3]): below the threshold | pKd (PDZD2_2, O15018; [3]): 4.43 | pKd (SNTG2, Q9NY99; [3]): 3.59 | pKd (GRIP1_5, Q9Y3R0; [3]): below the threshold | pKd (HTRA1, Q92743; [3]): 4.2 | pKd (IL16_3, Q14005; [3]): below the threshold | pKd (APBA3_1, O96018; [3]): below the threshold | pKd (GRIP2_7, Q9C0E4; [3]): below the threshold | pKd (PDZD7_3, Q9H5P4; [3]): 5.11 | pKd (MAGI2_2, Q86UL8; [3]): 4.18 | pKd (GORASP1, Q9BQQ3; [3]): 3.61
